The text below walks through data of patent publication US20230235059A1 (SORRENTO THERAPEUTICS, published 2023).

Assay [1] has as its target PD-1 in the Promega PD1/PD-L1 blockade reporter bioassay (Cat. No. J1250) (human, UniProt Q15116 25-288). Nature of the assay: cell-based or functional assay.
The target of assay [2] is T1, Recombinant cynomolgus monkey PD-1-His (Sino Biological catalog #90311-C08H) (cynomolgus monkey, UniProt Q15116 25-167 (human entry)).
T1 construct: Bought protein; also called cyno PD-1-His; cynomolgus monkey PD-1 antigen; not shown: His tag
T1 chain: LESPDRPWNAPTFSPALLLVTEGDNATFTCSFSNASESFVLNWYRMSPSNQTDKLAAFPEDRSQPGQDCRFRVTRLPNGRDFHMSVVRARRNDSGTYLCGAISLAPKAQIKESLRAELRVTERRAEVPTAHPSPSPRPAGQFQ
Nature of the assay: SPR (BIACORE), antibody captured on anti-human Fc, PD-1-His as analyte. Here is the method:
(§1) Binding kinetics of anti-PD1 antibodies with PD-1 proteins from different species was measured using surface plasmon resonance (SPR). […] The PD-1 proteins from human (catalog #10377-H08H-B), cynomolgus monkey (catalog #90311-C08H), rhesus monkey (catalog #90305-K08H), and mouse (catalog #50124-M08H) were obtained from Sino Biological. Anti-human fragment crystallizable region (Fc region) antibody was immobilized on a CMS sensor chip to approximately 8,000 RU using standard N-hydroxysuccinimide/N-Ethyl-N′-(3-dimethylaminopropyl) carbodiimide hydrochloride (NHS/EDC) coupling methodology. […] Recombinant human, cyno, rhesus and mouse PD-1-His were serially diluted in a running buffer of 0.01 M HEPES pH 7.4, 0.15 M NaCl, 3 mM EDTA, 0.05% v/v Surfactant P20 (HBS-EP+). All measurements were conducted in HBS-EP+ buffer with a flow rate of 30 μL/minute. A 1:1 (Langmuir) binding model was used to fit the data. All BIACORE assays were performed at room temperature.

In assay [3] the target is T2, Recombinant mouse PD-1-His (Sino Biological catalog #50124-M08H) (mouse, UniProt Q02242 25-167).
T2 construct: Bought protein; also called mouse PD-1 antigen; not shown: His tag
T2 sequence: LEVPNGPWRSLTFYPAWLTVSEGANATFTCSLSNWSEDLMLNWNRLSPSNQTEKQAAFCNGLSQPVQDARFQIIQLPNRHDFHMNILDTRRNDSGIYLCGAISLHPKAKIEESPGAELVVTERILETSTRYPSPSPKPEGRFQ
Described as above. As to the method:
as §1

Assay [4] addresses T3, Recombinant rhesus monkey PD-1-His (Sino Biological catalog #90305-K08H) (rhesus monkey).
T3 construct: Bought protein; also called rhesus PD-1-His; rhesus monkey PD-1 antigen; not shown: His tag
T3 chain: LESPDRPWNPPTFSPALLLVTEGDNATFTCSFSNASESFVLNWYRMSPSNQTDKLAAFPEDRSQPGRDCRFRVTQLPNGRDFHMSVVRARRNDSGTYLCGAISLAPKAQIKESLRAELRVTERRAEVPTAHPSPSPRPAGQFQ
The assay is described as above. Here is the method:
as §1

Sequence of PD-1 in the Promega PD1/PD-L1 blockade reporter bioassay (Cat. No. J1250) (Q15116 25-288 limits assumed): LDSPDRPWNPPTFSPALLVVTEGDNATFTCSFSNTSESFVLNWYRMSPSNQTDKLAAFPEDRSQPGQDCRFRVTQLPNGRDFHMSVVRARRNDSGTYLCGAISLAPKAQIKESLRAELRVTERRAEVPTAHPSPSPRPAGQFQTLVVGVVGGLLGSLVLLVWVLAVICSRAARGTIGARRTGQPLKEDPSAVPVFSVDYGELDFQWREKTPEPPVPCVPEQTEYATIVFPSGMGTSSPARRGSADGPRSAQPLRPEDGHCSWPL

B1: HPD-BB9 (antibody, V domains shown)
VH: QVQLVQSGAEVKKPGASVKVSCKASGFRLTTNGISWVRQAPGQGLEWMGWISAGGGPTNYAQKLQGRVTMTTDTSTSTAYMELRSLRSDDTAVYYCAKGLYGTKDAWGQGTLVTVSS
VL: QSVLTQPPSVSEVPGQRVTISCSGGGSNIGSNAVNWYQHFPGKAPKLLIYYNDLLPSGVSDRFSASKSGTSASLAISGLRSEDEADYYCAAWDDNLSAYVFATGTKVTVL
notes: also called HDP-BB9; anti-PD1 clone HPD-BB9
Regarding B1, the “EC50 of fold induction of Relative Light Units (RLU), PD1/PD-L1 blockade reporter bioassay” value in assay [1] is 0.493 µg/mL. The binding result in assay [2], in assay [3] and in assay [4] was “binds” throughout.
